Measured values: PMC6010298

How the values were obtained:
[1] = molecular target: His6-tagged ComE (response regulator ComE, wild type); experiment: Sandwich fluorescence-linked immunosorbent assay (FLISA); settings: no added salt stated (50 mM Bis-Tris-Propane-HCl, 1 mM MgCl2), 1 mM MgCl2, pH 7.8 or the same buffer at pH 6.0
[2] = molecular target: His6-tagged ComE T128A (non-phosphorylatable) T128A; experiment: as above; settings: no added salt stated (50 mM Bis-Tris-Propane-HCl, 1 mM MgCl2), 1 mM MgCl2, pH 7.8 or the same buffer at pH 6.0
[3] = molecular target: His6-tagged ComE T128E (phosphomimetic) T128E; experiment: as above; settings: no added salt stated (50 mM Bis-Tris-Propane-HCl, 1 mM MgCl2), 1 mM MgCl2, pH 7.8 or the same buffer at pH 6.0
[4] = system: ComE T128A (Hisx6) (Streptococcus pneumoniae R801); experiment: EMSA
[5] = system: ComE T128E (Hisx6) (Streptococcus pneumoniae R801); experiment: EMSA
[6] = system: ComE D58E (Hisx6) (Streptococcus pneumoniae R801); experiment: EMSA
[7] = system: ComE wt (Hisx6) (Streptococcus pneumoniae R801); experiment: EMSA
[8] = pH 6.0, 37°C (binding step, 1 h)
[9] = pH 7.8, 37°C (binding step, 1 h)

Substance | K1/2 [1, 8] [ng] | K1/2 [1, 9] [ng] | K1/2 [2, 8] [ng] | K1/2 [2, 9] [ng] | K1/2 [3, 8] [ng] | K1/2 [3, 9] [ng] | Kd [4] [nM] | Kd [5] [nM] | Kd [6] [nM] | Kd [7] [nM]
GST-StkP (serine/threonine protein kinase StkP, wild type) | 94 | 330 | 100 | 110 | 3200 | 900 |  |  |  | 
GST-StkP K42M (kinase-inactive) K42M | 55 | 140 | 100 | 80 |  |  |  |  |  | 
pcomC (comCDE promoter) |  |  |  |  |  |  | 375 | 74 | 21 | 371
